Columns and labels:
[1] = biological target: T1, human Angiopoietin-1 (human, UniProt Q15389 20-498, limits assumed); assay: Biacore, mAb captured
T1 construct: Bought recombinant protein (R&D Systems 293-AN-025/CF) or supernatant of transfected 293F cells; also called Ang-1; recombinant Ang-1
T1 sequence: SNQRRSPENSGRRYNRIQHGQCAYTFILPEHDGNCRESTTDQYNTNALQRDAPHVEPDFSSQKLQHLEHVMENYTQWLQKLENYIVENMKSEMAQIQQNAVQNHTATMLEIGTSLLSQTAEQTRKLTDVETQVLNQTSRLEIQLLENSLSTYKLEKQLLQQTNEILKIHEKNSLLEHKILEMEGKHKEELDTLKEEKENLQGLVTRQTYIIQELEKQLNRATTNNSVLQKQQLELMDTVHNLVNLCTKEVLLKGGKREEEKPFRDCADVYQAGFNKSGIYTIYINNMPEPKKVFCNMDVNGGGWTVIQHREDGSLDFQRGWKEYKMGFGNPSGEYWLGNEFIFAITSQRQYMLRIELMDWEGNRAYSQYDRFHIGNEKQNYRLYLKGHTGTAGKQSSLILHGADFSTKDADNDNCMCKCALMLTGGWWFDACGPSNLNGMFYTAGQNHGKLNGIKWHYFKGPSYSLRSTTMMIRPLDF

[2] = biological target: T2, human Angiopoietin-2 (human, UniProt O15123 19-496); assay: Biacore, mAb immobilized, 8 h dissociation
T2 construct: Mostly bought recombinant protein (R&D Systems 623-AM/CF, 623-AN; biotinylated BT623) or supernatant of transfected 293F cells; also called Ang-2; rhAng-2
T2 sequence: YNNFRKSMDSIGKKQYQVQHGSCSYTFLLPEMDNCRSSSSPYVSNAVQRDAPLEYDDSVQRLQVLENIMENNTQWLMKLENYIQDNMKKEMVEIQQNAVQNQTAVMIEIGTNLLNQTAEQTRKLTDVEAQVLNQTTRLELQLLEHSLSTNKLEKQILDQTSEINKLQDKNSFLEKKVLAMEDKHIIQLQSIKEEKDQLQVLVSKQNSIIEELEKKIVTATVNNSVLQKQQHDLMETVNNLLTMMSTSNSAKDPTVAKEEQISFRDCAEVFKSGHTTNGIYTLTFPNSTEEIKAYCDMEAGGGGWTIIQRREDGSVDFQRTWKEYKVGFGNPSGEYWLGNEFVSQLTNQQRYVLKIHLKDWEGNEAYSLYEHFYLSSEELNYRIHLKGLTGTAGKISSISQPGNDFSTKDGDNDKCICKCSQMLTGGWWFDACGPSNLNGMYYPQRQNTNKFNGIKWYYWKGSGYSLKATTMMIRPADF

[3] = biological target: T2, human Angiopoietin-2; assay: Biacore; kd held constant (*); kd held constant in the fit, not measured
Description: The label-free surface plasmon resonance (SPR), or Biacore, was utilized to measure the antibody affinity to the antigen. For this purpose, a high-density goat anti-human antibody surface over a CM5 Biacore chip was prepared using routine amine coupling. All the purified mAbs were diluted to approximately 8 μg/ml in HBS-P running buffer containing 100 μg/ml BSA and 10 mg/mL carboxymethyldextran. Each mAb was captured on a separate surface using a 42-second contact time, and a 5-minute wash for stabilization of the mAb baseline.
Data were fit globally to a 1:1 interaction model to determine the binding kinetics.

[4] = biological target: T2, human Angiopoietin-2; assay: competition ELISA: binding of recombinant human Ang-2 to coated human Tie2/Fc, mAb 3.19.3 titrated, bound Ang-2 detected with polyclonal anti-Ang-2
Description: (§1) For this purpose, an ELISA plate was coated with 4 μg/ml of hTie2/Fc (R&D Systems, Inc.) at 100 μl/well, and the wells were blocked as routine at 4° C. overnight.
(§2) Each concentration of the mAb was tested in triplicate. […] OD650 was determined 30 min after the HRP substrate was added.

[5] = biological target: T2, human Angiopoietin-2; assay: high resolution Biacore, mAb immobilized, 2nd experiment
Description: (§3) The mAb was then immobilized on flow cells 1-3 (CM5 Biacore chip) using routine amine coupling, leaving flow cell 4 as the reference flow cell.
(§4) The antibody surfaces were regenerated with a 6-second pulse of 15 mM NaOH after each injection cycle.
(§5) The sample injections alternated with three blank injection cycles. Each surface was regenerated with a 6-second pulse of 15 mM NaOH after each long off-rate injection cycle.

[6] = biological target: T3, mouse Angiopoietin-2 (mouse, UniProt O35608 19-496); assay: competition ELISA: binding of mouse Ang-2 (culture supernatant) to coated human Tie2/Fc, mAb 3.19.3 titrated, bound Ang-2 detected with polyclonal anti-Ang-2
T3 construct: Used as conditioned medium of transfectants; also called mAng-2; mouse Ang-2
T3 sequence: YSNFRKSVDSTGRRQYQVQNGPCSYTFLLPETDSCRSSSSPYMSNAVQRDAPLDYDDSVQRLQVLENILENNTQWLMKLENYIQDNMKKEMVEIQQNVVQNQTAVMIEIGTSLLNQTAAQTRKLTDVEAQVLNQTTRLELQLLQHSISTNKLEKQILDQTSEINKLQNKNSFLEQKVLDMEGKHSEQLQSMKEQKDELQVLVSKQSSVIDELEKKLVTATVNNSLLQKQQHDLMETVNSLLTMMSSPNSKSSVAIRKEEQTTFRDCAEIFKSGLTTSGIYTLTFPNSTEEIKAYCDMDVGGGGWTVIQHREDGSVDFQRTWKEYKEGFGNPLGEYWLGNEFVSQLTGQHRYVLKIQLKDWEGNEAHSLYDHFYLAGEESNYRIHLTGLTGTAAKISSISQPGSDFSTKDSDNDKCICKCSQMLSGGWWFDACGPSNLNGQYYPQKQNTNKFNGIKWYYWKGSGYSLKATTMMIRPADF
Description: as §1, §2

[7] = biological target: T2, human Angiopoietin-2; assay: KinExA, KD-controlled titration; KinExA, KD-controlled titration, 5 days at ~24 C
Description: For this purpose, a KinExA 3000 instrument was utilized. […] The beads were then centrifuged and washed once with blocking buffer (1×PBS, 10 mg/ml BSA), centrifuged again, and then incubated in blocking buffer for one hour at 24° C. After blocking, the beads were diluted in approximately 30 mL of HBS buffer (0.01 M Hepes, 0.15 M NaCl, pH 7.4) in a standard KinExA bead reservoir vial and placed on the instrument.
The KinExA instrument method used for the analysis of these solutions consisted of a bead packing step in which the PMMA beads were packed into a glass capillary, and the equilibrated solutions were flowed through the bead column at 0.25 mL/min for 6 min (1.5 mL) in duplicate. […] The fluorescence emission from the bead pack was measured at 670 nm with excitation at 620 nm. The resulting fluorescence measurements were converted into “% free nab binding site” versus total antigen concentration using the accompanying KinExA software package (version 1.0.3, Sapidyne, Inc.). The resulting KD-controlled titration curve was fit with the KinExA software to a 1:1 equilibrium isotherm with a drift correction factor included.

[8] = biological target: T2, human Angiopoietin-2; assay: high resolution Biacore, mAb immobilized, 1st experiment
Description: as §3, §4, §5

B1: mAb 3.3.2 (antibody, V domains shown)
VH: EVQLVESGGGLVQPGGSLRLSCAVSGFTFSSYWMSWVRQAPGKGLEWVANIKQDGSEKYYVDSVKGRFTISRDNAKNSLYLQMNSLRAEDTAVYYCARDQGIAVAGPFDYWGQGTLVTVSS
VL: EIVMTQSPATLSVSPGERATLSCRASQTVSSDLAWYQQKPGQAPRLLIYGASIRATGIPARFSGSGSGTEFTLTISSLQSEDFAVYSCQQYYNWWTFGQGTKVEIKR
notes: Human hybridoma IgG (XenoMouse); also called 3.3.1; x3.3
binding result [1]: no binding (tested: 87.4 nM Ang-1)

B2: mAb 5.35.1 (antibody, V domains shown)
VH: EVQLVESGGGVVRPGGSLRLSCTTSGFTFDDYGMSWVRQAPGKGLEWVSGINWNGGSTVYADSVKGRFTISRDSAKNSLYLQMNSLRAEDTALYHCARNKQWLWYFDLWGRGTLVTVSS
VL: EIVMTQSPATLSVSPGERATLSCRASQSVSSNLAWYQQKPGQAPRLLIYGASTRATGIPARFSGSGSGTEFTLTISSLQSEDFAVYYCEQYNNWPLTFGGGTKVEIKR
notes: Human hybridoma IgG (XenoMouse); also called x5.35
Kd [2]: 3.31 pM | koff [2]: 1.87e-06 s⁻¹ | kon [2]: 564000 M⁻¹ s⁻¹

B3: mAb 5.52.1 (antibody, V domains shown)
VH: QVQLVESGGGVVQPGRSLRLSCAASGFTFSSYGMHWVRQAPGKGLEWVAVRWYDESNKYYADSVKGRFTISRDNSKNTLYLQMNSLRAEDTAVYYCARDPFETGTTFDYWGQGTLVTVSS
VL: DIQMTQSPSSVSASVGDRVTITCRASQGISSWLAWYQQKPGKAPKLLIYAVSSLESGVPSRFSGSGSGTDFTLTISSLQPEDFATYYCQQALTFGGGTKVEIKR
notes: Human hybridoma IgG (XenoMouse); the line 5.52 has entries of its own (347, 349; light chain L2) that differ from the clone 5.52.1 (L5); also called x5.52
koff [3]: ≤ 1e-05 s⁻¹

B4: mAb 3.19.3 (antibody, V domains shown)
VH: QVQLVESGGGVVQPGRSLRLSCAASGFTFTNYGMHWGRQAPGKGLEWVAVISHDGNNKYYVDSVKGRFTISRDNSKNTLYLQMNSLRAEDTAVYYCAREGIDFWSGLNWFDPWGQGTLVTVSS
VL: EIVLTQSPGTLSLSPGERATLSCRASQSITGSYLAWYQQKPGQAPRLLICGASSWATGIPDRFSGSGSGTDFTLTISRLEPEDFAVYYCQQYSSSPITFGQGTRLEIKR
notes: Human hybridoma IgG (XenoMouse); also called x3.19
IC50 (read off the curve) [4]: ~0.8 µg/mL | Kd [5]: 5.6 pM | kon [5]: 178000 M⁻¹ s⁻¹ | IC50 (read off the curve) [6]: ~2 µg/mL | Kd [7]: 86.4 pM | Kd [8]: 5.3 pM | kon [8]: 189000 M⁻¹ s⁻¹
